{"source": "paper PMC12149301", "biological_target": "CDTb D623A + D734A Ca^2+-binding double mutant, active form (Clostridioides difficile)", "assay": "cryo-EM structure", "data": [{"substance": "CDTb D623A + D734A Ca^2+-binding double mutant, active form (natural protein)", "values": [{"measurement": "stoichiometry N", "result": 7}]}]}
